The source of these data is the Immune Epitope Database (IEDB).

By IC50 is commonly meant the concentration at which inhibition is half-maximal.

One assay concerns the target HLA-A*02:06. The assay is described as follows: IEDB peptide-MHC binding, purified MHC/competitive/radioactivity; ≥ and ≤ were set here for values at or beyond the usual limits of such assays.
The target of another assay is HLA-A*02:02. Described as above.
Another assay deals with HLA-A*02:03. The assay is described as follows: IEDB peptide-MHC binding, cellular MHC/competitive/fluorescence; ≥ and ≤ were set here for values at or beyond the usual limits of such assays.
Assay [1] addresses HLA-A*02:01. Described as above.
Assay [2] concerns the target HLA-A*68:02. Described as above.
Assay [3] deals with HLA-A*02:01. The experiment in a line: IEDB peptide-MHC binding, purified MHC/competitive/radioactivity; ≥ and ≤ were set here for values at or beyond the usual limits of such assays.
Assay [4] deals with HLA-A*68:02. Described as above.
Where [5] appears, read: source organism: Influenza A virus.
The mark [6] stands for this setting: source organism: Mammarenavirus whitewaterense.
Where [7] appears, read: source organism: Vaccinia virus WR.
Setting [8] is: source organism: Mammarenavirus machupoense.
[9] abbreviates: source organism: Mammarenavirus guanaritoense.

CAAMDDFQL: the IC50 with HLA-A*02:06 (setting [5]) was 2100 nM; with HLA-A*02:02 (setting [5]) it was 1010 nM; with HLA-A*02:03 (setting [5]), 22800 nM; in the assay with HLA-A*02:01 [1] (setting [5]), 10900 nM; in the assay with HLA-A*68:02 [2] (setting [5]), 5070 nM.

For the sequence GLLQFIVFL, the half-inhibitory concentration (IC50) came out at 12 nM with HLA-A*02:06 (setting [6]); 0.0075 nM with HLA-A*02:01 [3] (setting [6]); 0.6 nM in the assay with HLA-A*02:02 (setting [6]); 7720 nM with HLA-A*02:03 (setting [6]); 12000 nM in the assay with HLA-A*68:02 [2] (setting [6]).

Take HLTENNLYI: the IC50 turned out to be 1810 nM with HLA-A*02:06 (setting [7]); 15 nM in the assay with HLA-A*02:01 [3] (setting [7]); 114 nM with HLA-A*02:02 (setting [7]); 14400 nM in the assay with HLA-A*02:03 (setting [7]); 5810 nM with HLA-A*68:02 [2] (setting [7]).

IASILSLET: the IC50 turned out to be 318 nM with HLA-A*02:06 (setting [7]); 2540 nM with HLA-A*02:01 [3] (setting [7]); 3660 nM in the assay with HLA-A*02:02 (setting [7]); 7480 nM with HLA-A*02:03 (setting [7]); 7760 nM in the assay with HLA-A*68:02 [2] (setting [7]).

On to ITDDSDDYEL, for which the IC50 in the assay with HLA-A*02:06 (setting [7]) was determined as 49 nM; with HLA-A*02:01 [3] (setting [7]) it was 1730 nM; with HLA-A*02:02 (setting [7]) it was 687 nM; with HLA-A*02:03 (setting [7]), 11900 nM; in the assay with HLA-A*68:02 [2] (setting [7]), 11900 nM.

In the case of KIDKLTFQI, the half-maximal inhibitory concentration (IC50) with HLA-A*02:06 (setting [7]) was determined as 42 nM; in the assay with HLA-A*02:01 [3] (setting [7]), 134 nM; with HLA-A*02:02 (setting [7]), 141 nM; with HLA-A*02:03 (setting [7]), 10600 nM; with HLA-A*68:02 [2] (setting [7]), 36900 nM.

For KQIMECSRML, the half-maximal inhibitory concentration (IC50) came out at 60 nM with HLA-A*02:06 (setting [7]); 357 nM with HLA-A*02:01 [3] (setting [7]); 55 nM with HLA-A*02:02 (setting [7]); 29600 nM with HLA-A*02:03 (setting [7]); 7470 nM in the assay with HLA-A*68:02 [2] (setting [7]).

As for LLLIVQALR, the IC50 with HLA-A*02:06 (setting [5]) amounted to 3150 nM; with HLA-A*02:01 [3] (setting [5]) it was 3090 nM; with HLA-A*02:02 (setting [5]) it was 1490 nM; with HLA-A*02:03 (setting [5]) it was 8190 nM; with HLA-A*68:02 [2] (setting [5]) it was 42400 nM.

On to LNKSDSSWAV, for which the 50% inhibitory concentration (IC50) amounted to 2190 nM in the assay with HLA-A*02:06 (setting [8]); 1230 nM with HLA-A*02:01 [3] (setting [8]); 550 nM in the assay with HLA-A*02:02 (setting [8]); 5260 nM with HLA-A*02:03 (setting [8]); 8700 nM with HLA-A*68:02 [2] (setting [8]).

As to MLIIFWFSL, the concentration for half-maximal inhibition (IC50) is 490 nM in the assay with HLA-A*02:06 (source organism: SARS-CoV1); 1160 nM in the assay with HLA-A*02:01 [3] (source organism: SARS-CoV1); 132 nM with HLA-A*02:02 (source organism: SARS-CoV1); 13000 nM in the assay with HLA-A*02:03 (source organism: SARS-CoV1); 6910 nM in the assay with HLA-A*68:02 [2] (source organism: SARS-CoV1).

Consider VLFQNWGI, for which the IC50 in the assay with HLA-A*02:06 (setting [5]) turned out to be 2640 nM; with HLA-A*02:01 [3] (setting [5]), 849 nM; with HLA-A*02:02 (setting [5]) it was 1560 nM; with HLA-A*02:03 (setting [5]), 10100 nM; with HLA-A*68:02 [2] (setting [5]), 54800 nM.

For the sequence VLTSVDIET, the half-inhibitory concentration (IC50) in the assay with HLA-A*02:06 (setting [7]) turned out to be 14 nM; with HLA-A*02:01 [3] (setting [7]) it was 136 nM; in the assay with HLA-A*02:02 (setting [7]) it was 382 nM; with HLA-A*02:03 (setting [7]) it was 11300 nM; with HLA-A*68:02 [2] (setting [7]) it was 37500 nM.

Take VMDTLNGIMM: the 50% inhibitory concentration (IC50) in the assay with HLA-A*02:06 (setting [7]) came to 403 nM; with HLA-A*02:01 [3] (setting [7]), 33 nM; with HLA-A*02:02 (setting [7]), 7.6 nM; in the assay with HLA-A*02:03 (setting [7]), 5160 nM; in the assay with HLA-A*68:02 [2] (setting [7]), 6920 nM.

In the case of VQLSNNKYVL, the IC50 with HLA-A*02:06 (setting [7]) was 170 nM; with HLA-A*02:01 [3] (setting [7]) it was 4590 nM; in the assay with HLA-A*02:02 (setting [7]), 288 nM; with HLA-A*02:03 (setting [7]) it was 9490 nM; in the assay with HLA-A*68:02 [2] (setting [7]), not below 70000 nM.

Turning to VQTLISLNSM, the IC50 in the assay with HLA-A*02:06 (setting [7]) is 853 nM; with HLA-A*02:01 [3] (setting [7]) it was 259 nM; with HLA-A*02:02 (setting [7]) it was 1560 nM; with HLA-A*02:03 (setting [7]), 5820 nM; with HLA-A*68:02 [2] (setting [7]), 50900 nM.

For VVYHDDDNTT, the IC50 worked out at 3920 nM with HLA-A*02:06 (setting [7]); 2980 nM with HLA-A*02:01 [3] (setting [7]); 1860 nM with HLA-A*02:02 (setting [7]); 12600 nM with HLA-A*02:03 (setting [7]); 27800 nM with HLA-A*68:02 [2] (setting [7]).

With WSAIFFTTSL, the IC50 turned out to be 1410 nM in the assay with HLA-A*02:06 (setting [9]); 300 nM with HLA-A*68:02 [4] (setting [9]); 2000 nM in the assay with HLA-A*02:02 (setting [9]); 6990 nM with HLA-A*02:03 (setting [9]); 9090 nM with HLA-A*02:01 [1] (setting [9]).

YALEPRKEI: the 50% inhibitory concentration (IC50) was 4110 nM with HLA-A*02:06 (setting [7]); 710 nM with HLA-A*68:02 [4] (setting [7]); 3700 nM with HLA-A*02:02 (setting [7]); 7070 nM in the assay with HLA-A*02:03 (setting [7]); 9810 nM in the assay with HLA-A*02:01 [1] (setting [7]).

Take YAVLSEYET: the IC50 in the assay with HLA-A*02:06 (setting [7]) stood at 1330 nM; in the assay with HLA-A*68:02 [4] (setting [7]) it was 246 nM; with HLA-A*02:02 (setting [7]) it was 1780 nM; with HLA-A*02:03 (setting [7]) it was 35100 nM; with HLA-A*02:01 [1] (setting [7]), 37200 nM.

Regarding YAVLSEYETM, the 50% inhibitory concentration (IC50) with HLA-A*02:06 (setting [7]) was found to be 1210 nM; with HLA-A*68:02 [4] (setting [7]), 4160 nM; in the assay with HLA-A*02:02 (setting [7]) it was 157 nM; with HLA-A*02:03 (setting [7]) it was 9630 nM; with HLA-A*02:01 [1] (setting [7]), 5510 nM.
